Consider 3 molecules from paper PMC12275187, “CpgD is a phosphoglycerate cytidylyltransferase required for ceramide diphosphoglycerate synthesis” (The Journal of Biological Chemistry, 2025).

In series [1] the target is T1, CpgD (CCNA_01210) (Caulobacter vibrioides, UniProt A0A0H3C7D9).
T1 construct: expressed in E. coli ER2566; primers encode N-terminus MQPVKT, C-terminus EAEAV
T1 sequence (A0A0H3C7D9 1-253): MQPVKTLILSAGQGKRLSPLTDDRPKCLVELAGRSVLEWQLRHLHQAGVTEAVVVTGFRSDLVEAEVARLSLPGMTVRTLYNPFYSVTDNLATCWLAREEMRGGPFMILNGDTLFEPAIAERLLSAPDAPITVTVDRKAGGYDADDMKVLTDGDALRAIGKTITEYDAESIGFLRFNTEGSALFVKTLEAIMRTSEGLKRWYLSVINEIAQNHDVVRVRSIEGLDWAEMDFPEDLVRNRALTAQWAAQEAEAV
Description: thermal shift assay (GloMelt dye). Format: binding. Particulars: 10 mM nucleotide, 50 mM MgCl2, 50 mM HEPES pH 7.5; Tm change only in figure.

Substrate in series [2]: Nc1ccn([C@@H]2O[C@H](COP(=O)(O)OP(=O)(O)OP(=O)(O)O)[C@@H](O)[C@H]2O)c(=O)n1
As to the kind of experiment: HPAEC quantification of CDP-glycerate. Format: biochemical, Caulobacter vibrioides. The source says:
(§1) HPAEC quantification of CDP-glycerate on CpgD (CCNA_01210)

Substrate in series [3]: O=C(O)[C@@H](CO)OP(=O)(O)O
Description: HPAEC quantification of CDP-glycerate. Format: biochemical, Caulobacter vibrioides. Particulars: 10 mM CTP, 50 mM MgCl2, 50 mM HEPES pH 7.5, 45 min; pH 7.5.
Description: as §1

Substrate in series [4]: O=C(O)[C@H](O)COP(=O)(O)O
As to the kind of experiment: HPAEC quantification of CDP-glycerate. Particulars: 10 mM CTP, 50 mM MgCl2, 50 mM Tris pH 8.0, 3.5 h; pH 8.0. The class given is biochemical, Caulobacter vibrioides.
Description: as §1

Substrate in series [5]: O=C(O)[C@H](CO)OP(=O)(O)O
As to the kind of experiment: HPAEC quantification of CDP-glycerate. The class given is biochemical, Caulobacter vibrioides. Particulars: 10 mM CTP, 50 mM MgCl2, 50 mM HEPES pH 7.5, 45 min; pH 7.5.
Description: as §1

The mark [6] stands for this setting: 10 mM 3-phosphoglycerate, 50 mM MgCl2, 50 mM Tris pH 8.0, 3.5 h, Michaelis-Menten fit, pH 8.0.
Setting [7] is: 10 mM D-2-phosphoglycerate, 50 mM MgCl2, 50 mM HEPES pH 7.5, 45 min, Hill fit, cooperative (Hill coefficient 2.5), pH 7.5.

Consider `Nc1ccn([C@@H]2O[C@H](COP(=O)(O)OP(=O)(O)OP(=O)(O)O)[C@@H](O)[C@H]2O)c(=O)n1` [CTP], for which the Tm result in series [1] is “increase in the melting temperature of the protein was only observed upon addition of CTP”.
The same measure, in the same setting: under `Nc1ncnc2c1ncn2[C@@H]1O[C@H](COP(=O)(O)OP(=O)(O)OP(=O)(O)O)[C@@H](O)[C@H]1O` [ATP] stands “we consistently measured a lower melting temperature in the presence of ATP”.

B1: CpgD (CCNA_01210) (Caulobacter vibrioides NA1000) (protein)
chain: T1 sequence (A0A0H3C7D9 1-253)
notes: expressed in E. coli ER2566; primers encode N-terminus MQPVKT, C-terminus EAEAV
Broadly, the Km is the concentration of substrate that gives half-maximal velocity. Usually Vmax stands for the top rate of the reaction or transport when substrate is in excess. For the molecule B1, the Km in series [2] (setting [6]) was determined as 4.8 ± 0.9 mM; in series [3], 0.84 ± 0.16 mM; in series [4], 10.9 ± 0.7 mM; in series [5], 3.1 ± 0.6 mM. The maximal velocity (Vmax) came out at 0.4 µmol/min/mg in series [2] (setting [6]); 3.6 µmol/min/mg in series [2] (setting [7]); 3.2 µmol/min/mg in series [3]; 0.72 µmol/min/mg in series [4]; 1.5 µmol/min/mg in series [5]. Also, the K0.5 in series [2] (setting [7]) is reported as 6.4 ± 0.8 mM.
